Assay results as given in patent US20060088522A1, “Humanized anti-5T4 antibodies and anti-5T4/calicheamicin conjugates” (Wyeth, priority 2004, published 2006).

Columns and labels:
[1] = target: T1, human 5T4 antigen on cells (human, UniProt Q13641 32-420); assay: flow cytometry on N87, PC14PE6 and NCl-H157 cells (told of each)
T1 construct: whole, on cells; also called 5T4 on MDAMB435/5T4 cells; 5T4 on CT26/5T4 cells
T1 sequence (looked up): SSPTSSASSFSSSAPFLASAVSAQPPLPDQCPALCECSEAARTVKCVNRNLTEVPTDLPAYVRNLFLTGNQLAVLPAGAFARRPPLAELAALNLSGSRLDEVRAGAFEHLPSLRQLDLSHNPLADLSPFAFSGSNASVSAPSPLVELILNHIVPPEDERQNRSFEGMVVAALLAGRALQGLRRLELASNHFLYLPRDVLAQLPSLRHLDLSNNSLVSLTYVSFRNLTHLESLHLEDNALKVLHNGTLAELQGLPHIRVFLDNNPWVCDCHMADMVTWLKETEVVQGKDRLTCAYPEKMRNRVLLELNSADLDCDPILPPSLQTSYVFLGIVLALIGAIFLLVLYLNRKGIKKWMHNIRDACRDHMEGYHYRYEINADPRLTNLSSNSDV

[2] = target: T1, human 5T4 antigen on cells; assay: flow cytometry on MDAMB435/5T4 cells
human 5T4 antigen [3] = target: T2, human 5T4 antigen (human, UniProt Q13641 32-355, limits assumed); assay: BIACORE, human 5T4 antigen immobilized on a CM5 chip, antibody 12.5 nM to 200 nM
T2 construct: Isolated antigen as used in BIACORE and ELISA; also called 5T4 oncofetal antigen
T2 sequence (looked up): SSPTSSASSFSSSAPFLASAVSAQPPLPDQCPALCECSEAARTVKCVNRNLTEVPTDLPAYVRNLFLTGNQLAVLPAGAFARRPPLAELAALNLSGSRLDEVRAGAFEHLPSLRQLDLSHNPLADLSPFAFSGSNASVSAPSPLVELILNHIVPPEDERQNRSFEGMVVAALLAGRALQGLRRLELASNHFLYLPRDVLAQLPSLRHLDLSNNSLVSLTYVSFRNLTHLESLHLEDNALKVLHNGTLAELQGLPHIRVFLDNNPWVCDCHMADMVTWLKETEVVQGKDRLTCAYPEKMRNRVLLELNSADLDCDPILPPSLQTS
Description: BIACORE® technology utilizes changes in the refractive index at the surface layer upon binding of the antibody to the 5T4 antigen immobilized on the layer. Binding is detected by surface plasmon resonance (SPR) of laser light refracting from the surface. Analysis of the signal kinetics on rate and off rate allows the discrimination between non-specific and specific interaction. The concentration of antibody used was in the range of 12.5 nM to 200 nM.

human 5T4 antigen [4] = target: T2, human 5T4 antigen; assay: competition ELISA on plate-coated human 5T4 antigen; competitor biotinylated chimeric H8 at its ED50
Description: ELISA plates were coated with human 5T4 antigen. To each well was added 100 μl of 1 μg/ml 5T4 antigen in PBS-CMF pH 7.2. The plates were incubated overnight at 4° C. After coating with antigen, plates were washed in a blocking solution of 0.02% casein in PBS-CMF, pH 7.2 for 2-4 hours at room temperature. […] Plates were washed 4 times with 200 μl of 0.03% TWEEN®-20 in PBS. The signal was developed for 10-15 minutes at room temperature following addition of 100 ∥l BIOFX® TMB (Biofx Laboratories, Inc. of Randallstown, Md.) per well. The reaction was stopped by addition of 100 μl per well of 0.18 N H₂SO₄. All incubation and wash steps were performed with gentle agitation. […] The ED50 of biotinylated antibody binding to antigen was determined by plotting OD₄₅₀ (duplicate data points averaged) as a function of biotinylated antibody concentration. […] The biotin label was amplified using streptavidin-HRP diluted 1:10,000 in assay buffer, followed by signal development and quantification as above.

B1: murine H8 anti-5T4 antibody (antibody, V domains shown)
VH: EVQLQQSGPDLVKPGASVKISCKASGYSFTGYYMHWVKQSHGKSLEWIGRINPNNGVTLYNQKFKDKAILTVDKSSTTAYMELRSLTSEDSAVYYCARSTMITNYVMDYWGQVTSVTVSS
VL: SIVMTQTPTFLLVSAGDRVTITCKASQSVSNDVAWYQQKPGQSPTLLISYTSSRYAGVPDRFIGSGYGTDFTFTISTLQAEDLAVYFCQQDYNSPPTFGGGTKLEIK
notes: also called mAb5T4; H8 antibody
**Q.** Which results are given for B1?
**A.** fold signal over control IgG [1]: ~10 fold; fold signal over control IgG [2]: > 100 fold; Kd (human 5T4 antigen [3]): 0.58 nM; koff (human 5T4 antigen [3]): 5.9e-05 s⁻¹; kon (human 5T4 antigen [3]): 100000 M⁻¹ s⁻¹

B2: Chimeric H8 (mVH/mVL) (antibody, V domains shown)
VH: B1 VH
VL: B1 VL
notes: also called chimeric H8 antibody; chimeric versions of H8
**Q.** Which results are given for B2?
**A.** IC50 (human 5T4 antigen [4]): 1 nM; Kd (human 5T4 antigen [3]): 0.3 nM; koff (human 5T4 antigen [3]): 4.2e-05 s⁻¹; kon (human 5T4 antigen [3]): 140000 M⁻¹ s⁻¹
